# Laboratory results published in IntAct's records for PubMed 19258017.
# B1: Cellulose synthase A catalytic subunit 7 [UDP-forming] (Arabidopsis thaliana (Mouse-ear cress)), Q9SWW6 (parent)
# chain: MEASAGLVAGSHNRNELVVIHNHEEPKPLKNLDGQFCEICGDQIGLTVEGDLFVACNECGFPACRPCYEYERREGTQNCPQCKTRYKRLRGSPRVEGDEDEEDIDDIEYEFNIEHEQDKHKHSAEAMLYGKMSYGRGPEDDENGRFPPVIAGGHSGEFPVGGGYGNGEHGLHKRVHPYPSSEAGSEGGWRERMDDWKLQHGNLGPEPDDDPEMGLIDEARQPLSRKVPIASSKINPYRMVIVARLVILAVFLRYRLLNPVHDALGLWLTSVICEIWFAVSWILDQFPKWFPIERETYLDRLSLRYEREGEPNMLAPVDVFVSTVDPLKEPPLVTSNTVLSILAMDYPVEKISCYVSDDGASMLTFESLSETAEFARKWVPFCKKFSIEPRAPEMYFTLKVDYLQDKVHPTFVKERRAMKREYEEFKVRINAQVAKASKVPLEGWIMQDGTPWPGNNTKDHPGMIQVFLGHSGGFDVEGHELPRLVYVSREKRPGFQHHKKAGAMNALVRVAGVLTNAPFMLNLDCDHYVNNSKAVREAMCFLMDPQIGKKVCYVQFPQRFDGIDTNDRYANRNTVFFDINMKGLDGIQGPVYVGTGCVFKRQALYGYEPPKGPKRPKMISCGCCPCFGRRRKNKKFSKNDMNGDVAALGGAEGDKEHLMSEMNFEKTFGQSSIFVTSTLMEEGGVPPSSSPAVLLKEAIHVISCGYEDKTEWGTELGWIYGSITEDILTGFKMHCRGWRSIYCMPKRPAFKGSAPINLSDRLNQVLRWALGSVEIFFSRHSPLWYGYKGGKLKWLERFAYANTTIYPFTSIPLLAYCILPAICLLTDKFIMPPISTFASLFFISLFMSIIVTGILELRWSGVSIEEWWRNEQFWVIGGISAHLFAVVQGLLKILAGIDTNFTVTSKATDDDDFGELYAFKWTTLLIPPTTVLIINIVGVVAGISDAINNGYQSWGPLFGKLFFSFWVIVHLYPFLKGLMGRQNRTPTIVVIWSVLLASIFSLLWVRIDPFVLKTKGPDTSKCGINC
# partner: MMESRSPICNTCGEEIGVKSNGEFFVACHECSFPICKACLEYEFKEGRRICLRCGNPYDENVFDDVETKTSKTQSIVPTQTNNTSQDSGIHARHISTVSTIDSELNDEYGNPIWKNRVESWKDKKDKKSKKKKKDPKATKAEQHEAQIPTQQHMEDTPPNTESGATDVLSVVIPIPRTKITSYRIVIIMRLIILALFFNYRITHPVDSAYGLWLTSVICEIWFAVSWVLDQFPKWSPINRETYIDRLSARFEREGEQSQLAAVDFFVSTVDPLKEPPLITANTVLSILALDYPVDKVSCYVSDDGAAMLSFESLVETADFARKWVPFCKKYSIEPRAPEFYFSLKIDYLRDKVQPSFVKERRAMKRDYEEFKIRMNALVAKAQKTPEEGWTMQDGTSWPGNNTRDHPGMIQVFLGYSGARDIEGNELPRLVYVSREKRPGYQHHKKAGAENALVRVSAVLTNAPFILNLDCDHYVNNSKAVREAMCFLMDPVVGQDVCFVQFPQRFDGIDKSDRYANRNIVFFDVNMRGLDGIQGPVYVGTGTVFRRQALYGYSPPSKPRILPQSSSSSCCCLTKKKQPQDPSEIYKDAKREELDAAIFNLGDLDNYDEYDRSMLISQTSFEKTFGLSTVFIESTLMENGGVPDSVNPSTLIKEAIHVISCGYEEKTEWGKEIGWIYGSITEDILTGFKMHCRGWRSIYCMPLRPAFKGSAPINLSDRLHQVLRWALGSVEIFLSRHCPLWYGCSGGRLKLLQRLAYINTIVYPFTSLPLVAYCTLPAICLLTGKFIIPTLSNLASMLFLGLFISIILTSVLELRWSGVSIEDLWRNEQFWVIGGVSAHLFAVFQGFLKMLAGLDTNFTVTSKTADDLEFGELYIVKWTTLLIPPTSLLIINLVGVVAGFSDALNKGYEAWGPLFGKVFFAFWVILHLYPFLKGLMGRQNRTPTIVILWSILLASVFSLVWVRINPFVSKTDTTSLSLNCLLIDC
# B2: Cellulose synthase A catalytic subunit 7 [UDP-forming] (Arabidopsis thaliana (Mouse-ear cress)), Q9SWW6 (parent)
# chain: B1 chain
# partner: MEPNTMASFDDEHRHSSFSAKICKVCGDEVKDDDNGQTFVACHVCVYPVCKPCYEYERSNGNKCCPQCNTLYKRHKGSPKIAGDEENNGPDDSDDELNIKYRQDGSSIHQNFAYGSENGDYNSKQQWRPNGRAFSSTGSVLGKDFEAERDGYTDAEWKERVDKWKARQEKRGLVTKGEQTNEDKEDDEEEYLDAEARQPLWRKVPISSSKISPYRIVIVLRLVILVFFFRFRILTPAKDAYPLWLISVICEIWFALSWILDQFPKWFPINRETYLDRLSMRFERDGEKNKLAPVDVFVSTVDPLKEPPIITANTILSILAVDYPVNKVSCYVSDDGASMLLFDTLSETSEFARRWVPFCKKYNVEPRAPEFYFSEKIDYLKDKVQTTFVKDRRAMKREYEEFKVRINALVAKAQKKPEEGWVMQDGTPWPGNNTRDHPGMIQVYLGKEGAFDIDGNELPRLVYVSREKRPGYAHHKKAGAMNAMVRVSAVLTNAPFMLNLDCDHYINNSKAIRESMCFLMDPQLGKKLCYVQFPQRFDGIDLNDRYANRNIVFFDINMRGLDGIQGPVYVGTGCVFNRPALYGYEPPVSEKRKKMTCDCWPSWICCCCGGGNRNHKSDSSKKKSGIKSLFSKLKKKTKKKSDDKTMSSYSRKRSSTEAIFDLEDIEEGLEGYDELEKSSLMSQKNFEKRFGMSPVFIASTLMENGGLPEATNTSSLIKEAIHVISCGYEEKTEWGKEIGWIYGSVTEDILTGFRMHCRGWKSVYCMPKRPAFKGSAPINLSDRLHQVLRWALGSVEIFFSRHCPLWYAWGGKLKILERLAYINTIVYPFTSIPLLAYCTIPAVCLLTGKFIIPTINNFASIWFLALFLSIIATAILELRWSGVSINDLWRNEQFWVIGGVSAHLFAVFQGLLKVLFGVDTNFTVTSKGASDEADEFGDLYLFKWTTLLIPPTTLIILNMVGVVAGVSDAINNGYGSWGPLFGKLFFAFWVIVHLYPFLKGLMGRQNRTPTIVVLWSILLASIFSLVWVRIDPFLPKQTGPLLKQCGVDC
# Variants of: B1
# Conditions: with cesa8_arath CESA8, Q8LPK5
row,effect of a mutation on the interaction,Variant
1,decreasing interaction,C79A

# Variants of: B1
# Conditions: with cesa8_arath CESA8, Q8LPK5
# Remark: another data set of the same source
row,effect of a mutation on the interaction,Variant
1,decreasing interaction,C64A

# Variants of: B1
# Conditions: with cesa8_arath CESA8, Q8LPK5
# Remark: another data set of the same source
row,effect of a mutation on the interaction,Variant
1,decreasing interaction,C37A

# Variants of: B1
# Conditions: with cesa8_arath CESA8, Q8LPK5
# Remark: another data set of the same source
row,effect of a mutation on the interaction,Variant
1,decreasing interaction,C56A

# Variants of: B2
# Conditions: with cesa4_arath CESA4, Q84JA6
row,effect of a mutation on the interaction,Variant
1,decreasing interaction,C79A

# Variants of: B2
# Conditions: with cesa4_arath CESA4, Q84JA6
# Remark: another data set of the same source
row,effect of a mutation on the interaction,Variant
1,decreasing interaction,C64A

# Variants of: B2
# Conditions: with cesa4_arath CESA4, Q84JA6
# Remark: another data set of the same source
row,effect of a mutation on the interaction,Variant
1,decreasing interaction,C37A
